Measurements: PMC9959518, “Influence of the Drug Position on Bioactivity in Angiopep-2—Daunomycin Conjugates” (International Journal of Molecular Sciences, 2023)

Assays:
[1] = tested on: U87 human glioblastoma cells; experiment: In vitro cellular uptake by flow cytometry; format: cell-based; settings: 50 µM
Protocol: The in vitro cytostatic effect of any peptide–drug conjugate is influenced by many factors. One of the main effects is the cellular uptake of the conjugates by cells. Therefore, we compared the cellular uptake of the different conjugates on U87 glioblastoma cells. The cells were incubated with the conjugates (2, 10, and 50 µM) for 1 h. Then, after a washing step, the cells were treated with trypsin to remove the cell surface-bound conjugates and other cell surface structures that enable non-specific binding, so only the quantity of the conjugates actually entering the cells was detected by flow cytometry. […] The cellular uptake of the conjugates was concentration-dependent. […]
U87 cells were plated into 24-well tissue culturing plates with the initial cell number of 10^5 cells/well 24 h before the experiment. […] Data were recorded for 5000–10,000 cells at λex = 488 nm. The fluorescence mean was calculated. Daunomycin-positive cells were also gated from the living cell population, and the percentage of daunomycin-containing cells was calculated. The gating was determined from the untreated control cell count/fluorescence intensity histogram by adjusting the lowest fluorescence intensity value of the gated cells to the highest fluorescence intensity value of the live population of untreated control cells. Cells showing fluorescence intensities above this were considered as Dau-positive. […]

[2] = tested on: U87 human glioblastoma cells; format: cell-based; settings: MTT test, 0.05–50 µM, treated 24 h (method: overnight), washed, further 48 h (method: 72 h) at 37 °C, two independent experiments with four parallel measurements
Protocol: The in vitro cytostatic effect of the synthesized peptide (1) and daunomycin-peptide conjugates (2–8) was investigated on U87 human glioblastoma cells. The cells were treated with the peptide and conjugates at different concentrations (0.05–50 μM) for 24 h, and after a washing step, the cells were incubated for another […] at 37 °C. The cytostatic effect of the compounds was determined using the MTT test.
U87 human glioblastoma cell line was cultured in DMEM supplemented with 10% FBS, 2 mM L-glutamine, penicillin–streptomycin antibiotic mixture (50 IU/mL and 50 μg/mL, respectively), 1 mM sodium pyruvate, and 1% non-essential amino acid mixture. The cell culture was maintained at 37 °C in a humidified atmosphere with 5% CO2. The U87 cell line was a generous gift of Dr. József Tóvári (Department of Experimental Pharmacology, National Institute of Oncology, Budapest, Hungary).
For determining the cytostatic effect of the conjugates, U87 cells were grown to confluency and then divided into 96-well tissue culture plates with an initial cell number of 5.0 × 10^3 cells/well. After 24 h incubation at 37 °C, the cells were treated with the compounds overnight in the concentration range of 0.05–50 μM in 200 μL final volume containing 1.0 v/v% DMSO, whereas control cells were treated only with serum-free medium or with 1.0 v/v% DMSO at the same conditions. After the incubation, cells were washed twice with serum-free medium, then the cells were cultured for an additional 72 h in 10% serum-containing medium at 37 °C. Following that, MTT solution (at c = 0.37 mg/mL final concentration) was added to each well. The respiratory chain [32] and other electron transport systems reduced MTT and thereby formed non-water-soluble violet formazan crystals within the cells. The amount of these crystals can be determined by spectrophotometry and serves as an estimate for the number of mitochondria in addition to the number of living cells in the well [35]. After 3 h of incubation with MTT, the cells were centrifuged for 5 min at 2000 rpm and the supernatant was removed. The obtained formazan crystals were dissolved in DMSO (100 µL), and the optical density (OD) of the samples was measured at λ = 540 nm and 620 nm, respectively, using ELISA Reader (iEMS Reader, Labsystems, Finland). The OD620 values were subtracted from the OD540 values. The percent of cytostasis was calculated with the following equation:(1) Cytostatic effect (%)=1−ODtreated/ODcontrol×100 where the ODtreated and ODcontrol values correspond to the optical densities of the treated and the control wells, respectively. In each case, two independent experiments were carried out with four parallel measurements. Cytostasis was plotted as a function of concentration, and the half-maximal inhibitory concentration was calculated based on a sigmoid curve fitted on the data points using Microcal™ Origin 2018 software. IC50 represents the concentration of a compound that is required for 50% inhibition, expressed in micromolar units.

[3] = Degradation in rat liver lysosomal homogenate followed by HPLC-MS; format: in vitro ADME; settings: pH 5.03, 37 °C
Protocol: The conjugates were treated with lysosomal homogenate for 5 min, 1 h, 6 h, 24 h, and 72 h, and the degradation was followed by HPLC-MS. Control studies investigating conjugates in buffer (without lysosomal homogenate) were also performed, and for these, all conjugates were stable. […] At 6 h, it was the main drug-containing metabolite, and at 72 h, only this Dau-containing fragment could be detected. This time-dependent pattern was also observed in the case of conjugate 2, where Dau was attached to the side chain of Lys in position 15, and the formed smallest metabolite was H-Lys(Dau=Aoa)-OH. […] It is likely that, in this case, a large steric hindrance occurred, and the enzymes were not able to access the peptide bonds around ^10Lys. This observation might explain the discrepancy between the efficient cellular uptake and the lower anticancer activity of this conjugate.
A stock solution with a concentration of 2.5 μg/μL was prepared from the conjugates in distilled water, and this was diluted 100× with 0.2 M sodium acetate buffer (pH 5.03). The rat liver lysosomal homogenate (16.6 μg/μL) was diluted 20× with the same buffer, and then the two solutions were mixed in a 1:1 (protein:peptide, m/m) ratio. In each case, control measurements were also performed, in which buffer was added to the conjugates instead of the lysosomal homogenate. The solutions were stirred at 600 rpm at 37 °C in a thermostat (ThermoMixer, Eppendorf AG, Hamburg, Germany), and after 5 min, 1 h, 6 h, 24 h, and 72 h, 50 μL samples were taken. Each reaction was quenched with 5 μL formic acid and the samples were stored frozen until analysis.
The HPLC-MS analysis of the samples was performed with a Dionex 3000 HPLC-Q Exactive Focus hybrid quadrupole-orbitrap mass spectrometer (Thermo Fisher Scientific, Bremen, Germany). For separation, a Supelco Ascentis C18 column (3 μm, 100 Å, 150 × 2.1 mm; Merck, Darmstadt, Germany) and gradient elution (0 min 2% B, 1 min 2% B, 17 min 90% B; A eluent: 0.1% formic acid/distilled water, eluent B: 0.1% formic acid/acetonitrile + distilled water (80:20, v/v%), flow rate 0.2 mL/min, 40 °C) was used, and high-resolution mass spectra were recorded in the range of 200–1800 m/z. The data were analyzed using the Xcalibur program (Thermo Fisher Scientific).

| SMILES | toxicity observed during the cellular uptake measurement (live cells in % of untreated control) [1] | IC50 [2] [µM] | release of Dau=Aoa-Gly-OH (in words) [3] | amount of H-K(Dau=Aoa-VA)-OH formed [3] | amount of expected metabolite Dau=Aoa-Val-OH produced after 72 h ([3]; 72 h) | time of appearance of the Dau=Aoa-Val-Ala-OH fragment [3] [h] | amount of Dau=Aoa-Val-OH detected after 6 h ([3]; 6 h) |
| --- | --- | --- | --- | --- | --- | --- | --- |
| COc1cccc2c1C(=O)c1c(O)c3c(c(O)c1C2=O)C[C@@](O)(C(C)=NOCC(=O)NCCCC[C@H](NC(=O)CNC(=O)[C@H](CCCNC(=N)N)NC(=O)[C@H](CO)NC(=O)CNC(=O)CNC(=O)[C@H](Cc1ccc(O)cc1)NC(=O)[C@H](Cc1ccccc1)NC(=O)[C@H](Cc1ccccc1)NC(=O)[C@@H](NC(=O)CON=C(C)[C@]1(O)Cc2c(O)c4c(c(O)c2[C@@H](O[C@H]2C[C@H](N)[C@H](O)[C@H](C)O2)C1)C(=O)c1c(OC)cccc1C4=O)[C@@H](C)O)C(=O)N[C@@H](CCCNC(=N)N)C(=O)N[C@@H](CC(N)=O)C(=O)N[C@@H](CC(N)=O)C(=O)N[C@@H](Cc1ccccc1)C(=O)N[C@@H](CCCCN)C(=O)N[C@H](C(=O)N[C@@H](CCC(=O)O)C(=O)N[C@@H](CCC(=O)O)C(=O)N[C@@H](Cc1ccc(O)cc1)C(=O)O)[C@@H](C)O)C[C@@H]3O[C@H]1C[C@H](N)[C@H](O)[C@H](C)O1 [compound 7, Dau=Aoa-TFFYGGSRGK(Dau=Aoa)RNNFKTEEY-OH] | slight toxicity | 7.8 ± 6.3 | – | – | – | – | – |
| COc1cccc2c1C(=O)c1c(O)c3c(c(O)c1C2=O)C[C@@](O)(C(C)=NOCC(=O)NCC(=O)N[C@@H](Cc1ccccc1)C(=O)N[C@@H](CC(C)C)C(=O)NCC(=O)NCCCC[C@H](NC(=O)CNC(=O)[C@H](CCCNC(=N)N)NC(=O)[C@H](CO)NC(=O)CNC(=O)CNC(=O)[C@H](Cc1ccc(O)cc1)NC(=O)[C@H](Cc1ccccc1)NC(=O)[C@H](Cc1ccccc1)NC(=O)[C@@H](N)[C@@H](C)O)C(=O)N[C@@H](CCCNC(=N)N)C(=O)N[C@@H](CC(N)=O)C(=O)N[C@@H](CC(N)=O)C(=O)N[C@@H](Cc1ccccc1)C(=O)N[C@@H](CCCCN)C(=O)N[C@H](C(=O)N[C@@H](CCC(=O)O)C(=O)N[C@@H](CCC(=O)O)C(=O)N[C@@H](Cc1ccc(O)cc1)C(=O)O)[C@@H](C)O)C[C@@H]3O[C@H]1C[C@H](N)[C@H](O)[C@H](C)O1 [compound 9, H-TFFYGGSRGK(Dau=Aoa-GFLG)RNNFKTEEY-OH] | slight toxicity | 16.9 ± 5.6 | particularly slow | – | – | – | – |
| COc1cccc2c1C(=O)c1c(O)c3c(c(O)c1C2=O)C[C@@](O)(C(C)=NOCC(=O)N[C@H](C(=O)N[C@@H](C)C(=O)NCCCC[C@H](NC(=O)CNC(=O)[C@H](CCCNC(=N)N)NC(=O)[C@H](CO)NC(=O)CNC(=O)CNC(=O)[C@H](Cc1ccc(O)cc1)NC(=O)[C@H](Cc1ccccc1)NC(=O)[C@H](Cc1ccccc1)NC(=O)[C@@H](N)[C@@H](C)O)C(=O)N[C@@H](CCCNC(=N)N)C(=O)N[C@@H](CC(N)=O)C(=O)N[C@@H](CC(N)=O)C(=O)N[C@@H](Cc1ccccc1)C(=O)N[C@@H](CCCCN)C(=O)N[C@H](C(=O)N[C@@H](CCC(=O)O)C(=O)N[C@@H](CCC(=O)O)C(=O)N[C@@H](Cc1ccc(O)cc1)C(=O)O)[C@@H](C)O)C(C)C)C[C@@H]3O[C@H]1C[C@H](N)[C@H](O)[C@H](C)O1 [compound 10, H-TFFYGGSRGK(Dau=Aoa-VA)RNNFKTEEY-OH] | – | > 50 | – | very small amounts | negligible amounts | – | – |
| COc1cccc2c1C(=O)c1c(O)c3c(c(O)c1C2=O)C[C@@](O)(C(C)=NOCC(=O)N[C@H](C(=O)N[C@@H](C)C(=O)NCC(=O)NCC(=O)NCCCC[C@H](NC(=O)CNC(=O)[C@H](CCCNC(=N)N)NC(=O)[C@H](CO)NC(=O)CNC(=O)CNC(=O)[C@H](Cc1ccc(O)cc1)NC(=O)[C@H](Cc1ccccc1)NC(=O)[C@H](Cc1ccccc1)NC(=O)[C@@H](N)[C@@H](C)O)C(=O)N[C@@H](CCCNC(=N)N)C(=O)N[C@@H](CC(N)=O)C(=O)N[C@@H](CC(N)=O)C(=O)N[C@@H](Cc1ccccc1)C(=O)N[C@@H](CCCCN)C(=O)N[C@H](C(=O)N[C@@H](CCC(=O)O)C(=O)N[C@@H](CCC(=O)O)C(=O)N[C@@H](Cc1ccc(O)cc1)C(=O)O)[C@@H](C)O)C(C)C)C[C@@H]3O[C@H]1C[C@H](N)[C@H](O)[C@H](C)O1 [compound 11, H-TFFYGGSRGK(Dau=Aoa-VAGG)RNNFKTEEY-OH] | – | 20.2 ± 3 | – | – | – | 1 | high amounts |
